From patent publication US8709981B2, “Isolated Australian coral reef fluorescent proteins and cell-based kinase or phosphatase platforms for cancer drug development” (priority 2009, dated 2014)

Assays:
[1] = system: PKA, PKC, MAPK, cdc2, Akt1, Src; experiment: Western blot / SDS-PAGE analysis of phosphorylation; type: biochemical
Experimental: Equal quantities of PhosFluor or eGFP incubated with either PKC or Src for the indicated times (in hours) were resolved on 10% SDS-PAGE gels and immunoblotted to antibodies that reveal total protein (a polyhistidine monoclonal antibody) or phospho-tyrosine. M designates the position of the monomeric form of fluorescent protein while P designates the position of phosphorylated forms of the protein that have undergone a motility shift due to increased negative charge.
Phosphorylation is known to increase the negative charge on proteins, which commonly results in an upward shift in the apparent molecular weight of the protein when resolved by SDS-PAGE (sodium dodecyl sulfate-polyacrylamide gel electrophoresis).

[2] = system: alkaline phosphatase; settings: incubated with alkaline phosphatase
Experimental: (§3) B. Equal quantities of the recombinant PhosFluor or eGFP were subjected to phosphorylation by the indicated protein kinases or to dephosphorylation with alkaline phosphatase (Alk Phos). Fluorescence intensity (representing the change in emission of a part of the emission spectrum compared to the value at 0 hours) was measured over time during the reaction.
(§4) To determine if the fluorescence of PhosFluor could be modulated by phosphorylation, recombinant PhosFluor was incubated with different protein kinases and fluorescence was monitored (FIG. 9B).

[3] = system: protein kinases; experiment: Fluorescence intensity of recombinant protein incubated with protein kinases; type: biochemical
Experimental: as §3, §4

[4] = Fluorescence intensity at different pH (Tris buffer); type: physicochemical; settings: from pH 6.3 to pH 8.5
Text: A panel of fluorescent proteins was subjected to different pH conditions.

[5] = system: protein kinases (PKA, PKC, Akt1, CamKII, MAPK); experiment: Excitation and emission spectra after phosphorylation; type: biochemical
Text: FIG. 11 discloses that phosphorylation of PhosFluor alters its spectral properties. The excitation and emission spectra of PhosFluor and eGFP are depicted under control conditions (no kinase) and after phosphorylation by the indicated kinases. The excitation and emission spectra for eGFP are all superimposed under a single curve, while phosphorylation of PhosFluor alters both spectra compared to control conditions.
The excitation and emission spectra of PhosFluor were also obtained under control conditions and when phosphorylated (FIG. 10A). […] A marked shift in the emission spectrum of PhosFluor was observed when this molecule was incubated with PKA, PKC or Akt1 (FIG. 10B). […] These observations are highly significant because changes in the emission spectrum permits ratiometric measurements to be carried out, a highly robust method for quantitating spectral change in a fluorophore. Moreover, the effects reported here were carried out on the unmodified native PhosFluor protein. Enhanced effects would be expected if this protein is optimized for phosphorylation and/or expression as disclosed herein.

[6] = Fluorescence correlation spectroscopy (FCS) compared to eGFP; type: physicochemical
Text: (§1) The fluorescence emission of a disclosed fluorescent polypeptide having the amino acid sequence set forth in SEQ ID NO: 24 was compared to eGFP. eGFP is one of the brightest fluorescent proteins created to date. Both the disclosed fluorescent polypeptide having the amino acid sequence set forth in SEQ ID NO: 24 and eGFP were cloned into a modified pET-HT vector with a TEV-cleavable His-tag, expressed in BL21-DE3 E. coli, and purified via Ni-NTA resin. The concentration of each sample was normalized by the intensity of the respective absorption spectrum at 480 nm.
(§2) Fluorescence correlation spectroscopy (FCS) measurements (not shown) also indicated the protein having the sequence set forth in SEQ ID NO: 24 is monomeric and about 1.4 times as bright as eGFP. Additionally, as FIG. 6 clearly indicates, the peak emission intensity of the disclosed fluorescent polypeptide having the amino acid sequence set forth in SEQ ID NO: 24 is about 50% greater than that of eGFP.

[7] = Fluorescence emission spectrum compared to eGFP; type: physicochemical; settings: samples normalized by absorption at 480 nm
Text: as §1, §2

Molecule | SDS-PAGE mobility shift upon phosphorylation by PKC ([1]; PKC) | substrate for PKC and Src ([1]; PKC or Src, immunoblot) | phosphorylation of serine and threonine sites ([1]; Western blot, by PKA, PKC, MAPK, cdc2 and Akt1) | increase in fluorescence intensity over time with alkaline phosphatase [2] | fluorescence intensity when incubated with cdc2 and MAPK ([3]; cdc2 and MAPK, data not shown) | fluorescence intensity in the absence of added protein kinase ([3]; no added protein kinase) | fluorescence intensity when treated with various protein kinases ([3]; recombinant protein incubated with kinases) | increase in brightness [4] | excitation spectrum upon phosphorylation ([5]; different protein kinases, including Akt1) | emission spectrum upon phosphorylation ([5]; incubated with PKA, PKC or Akt1) | oligomeric state [6] | brightness relative to eGFP ([6]; as bright as eGFP) | peak emission intensity greater than that of eGFP [7]
PhosFluor: fluorescent protein having the amino acid sequence set forth in SEQ ID NO: 10, isolated from Scleractinia (protein, Scleractinia sp) MSAHIKPNMKIKLRMEGDVNGHPFVITGEGSGKPYEGTHAIDLKVKEGGPLPFAYDILTAAFQYGNRAFTKYPADIPDYFKQSFPDGYCWERSMVFEDQGICVVKSVISLDKKEPDCFNYDIRFYGVNFPATGPVMKKKTVKWEPSTQTMYERDGVLVGDVNMALLLEGGGHHRCDFKSTYRAKGVVLNMPGNHYVDHRIEIIHHDKGYNSVTVHESAEARHCSLPSKAK | multiple higher molecular weight species | avid substrate | phosphorylated | virtually abolished the increase in fluorescence intensity | increased above background levels | increased to a lesser degree | dramatic increase in fluorescence intensity | > 100% | dramatically altered | marked shift |  |  | 
SEQ ID NO: 24: disclosed fluorescent polypeptide having the amino acid sequence set forth in SEQ ID NO: 24 (protein, listed as Lobophyllia hemprichii) MNVIKTDMKMKLRMVGAVNGHKFEIAGEGKGKPFEGKQTMNLEVLVGGPLPFAFDILTTVFDYGNRVFVKYPRDIADYFKQSFPEGFSWERSMAYEDGGICLATNNITLMKGDCFLYEIRFDGVNFPANSPVLQKKTV |  |  |  |  |  |  |  |  |  |  | monomeric | about 1.4 times | about 50%
